# Source: IntAct's records for PubMed 15165234
# B1: Nitrogen regulatory protein P-II (Synechococcus elongatus (strain PCC 7942)), P0A3F4 (parent)
# chain: MKKIEAIIRPFKLDEVKIALVNAGIVGMTVSEVRGFGRQKGQTERYRGSEYTVEFLQKLKLEIVVEDAQVDTVIDKIVAAARTGEIGDGKIFVSPVDQTIRIRTGEKNADAI
# partner: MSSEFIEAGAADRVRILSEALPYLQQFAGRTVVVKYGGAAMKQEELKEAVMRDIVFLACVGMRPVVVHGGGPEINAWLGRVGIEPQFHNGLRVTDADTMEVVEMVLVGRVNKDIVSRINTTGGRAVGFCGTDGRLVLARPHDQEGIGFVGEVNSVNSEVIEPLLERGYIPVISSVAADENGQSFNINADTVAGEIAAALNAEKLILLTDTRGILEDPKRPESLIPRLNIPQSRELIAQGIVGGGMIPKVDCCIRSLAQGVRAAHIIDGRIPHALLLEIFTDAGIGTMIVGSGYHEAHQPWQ
# Variants of: B1
# Conditions: with argb_syne7 argB
row,effect of a mutation on the interaction,Variant
1,decreasing interaction,S49E
2,decreasing interaction,S49A
